Test results: patent publication US20250320281A1

Experiments:
Test in all cases: cell-based or functional assay
[1] = biological target: HIV-1 Env of isolate MGRM-F1-010 (clade F), on pseudovirus (HIV-1)
[2] = biological target: HIV-1 Env of isolate MG RM-D-011 (clade D), on pseudovirus (HIV-1)
[3] = biological target: HIV-1 Env of isolate MG RM-D-008 (clade D), on pseudovirus (HIV-1)
[4] = biological target: HIV-1 94UG103 Env on pseudotyped virus (HIV-1 isolate 94UG103)
[5] = biological target: HIV-1 Env of isolate MGRM-F1-018 (clade F pseudovirus) (HIV-1)
[6] = biological target: HIV-1 Env of isolate MGRM-C-024 (clade C pseudovirus) (HIV-1)
[7] = biological target: HIV-1 Env of pseudovirus MGRM-A-007 (subtype A) (HIV-1)
[8] = biological target: HIV-1 Env of pseudovirus 93WR029 (subtype A) (HIV-1)
[9] = biological target: HIV-1 Env of isolate MGRM-C-027 (clade C pseudovirus) (HIV-1)
[10] = biological target: HIV-1 Env of isolate MGRM-Chronic-B-023 (HIV-1)
[11] = biological target: HIV-1 Env of pseudovirus 92WR021 (subtype A) (HIV-1)
[12] = biological target: HIV-1 Env of isolate MGRM-F1-006 (clade F), on pseudovirus (HIV-1)
[13] = biological target: HIV-1 Env of isolate MGRM-Chronic-B-012 (HIV-1)
[14] = biological target: HIV-1 Env of isolate 92UG046 (clade D), on pseudovirus (HIV-1)
[15] = biological target: HIV-1 Env of pseudovirus 94UG103 (subtype A) (HIV-1)
[16] = biological target: HIV-1 Env of isolate MGRM-C-025 (clade C pseudovirus) (HIV-1)
[17] = biological target: HIV-1 Env of isolate MGRM-Chronic-B-008 (HIV-1)
[18] = biological target: HIV-1 Env of isolate MG RM-D-005 (clade D), on pseudovirus (HIV-1)
[19] = biological target: HIV-1 Env of isolate MG RM-D-004 (clade D), on pseudovirus (HIV-1)
[20] = biological target: HIV-1 Env of isolate MGRM-F1-016 (clade F), on pseudovirus (HIV-1)
[21] = biological target: HIV-1 Env of isolate MG RM-D-003 (clade D), on pseudovirus (HIV-1)
[22] = biological target: HIV-1 Env of isolate MGRM-F1-013 (clade F), on pseudovirus (HIV-1)
[23] = biological target: HIV-1 92RW020 Env (HIV-1 92RW020)
[24] = biological target: HIV-1 Env of isolate MGRM-F1-004 (clade F), on pseudovirus (HIV-1)
[25] = biological target: HIV-1 Env of isolate MG RM-D-013 (clade D), on pseudovirus (HIV-1)
[26] = biological target: HIV-1 Env of isolate 92UG114 (clade D), on pseudovirus (HIV-1)

Row | Substance | IC50 (µg/mL), pseudovirus neutralization [1] [µg/mL] | IC50 (µg/mL), pseudovirus neutralization [2] [µg/mL] | IC50 (µg/mL), pseudovirus neutralization [3] [µg/mL] | IC50 (µg/mL), pseudovirus neutralization [5] [µg/mL] | IC50 (µg/mL), pseudovirus neutralization [6] [µg/mL] | IC50, pseudovirus neutralization [7] [µg/mL] | IC50, pseudovirus neutralization [8] [µg/mL] | IC50 (µg/mL), pseudovirus neutralization [9] [µg/mL] | IC50 (µg/mL), pseudovirus neutralization [10] [µg/mL] | IC50, pseudovirus neutralization [11] [µg/mL] | IC50 (µg/mL), pseudovirus neutralization [12] [µg/mL] | IC50 (µg/mL), pseudovirus neutralization [13] [µg/mL] | IC50 (µg/mL), pseudovirus neutralization [14] [µg/mL] | IC50, pseudovirus neutralization [15] [µg/mL] | IC50 (µg/mL), pseudovirus neutralization [16] [µg/mL] | IC50 (µg/mL), pseudovirus neutralization [17] [µg/mL] | IC50 (µg/mL), pseudovirus neutralization [18] [µg/mL] | IC50 (µg/mL), pseudovirus neutralization [19] [µg/mL] | IC50 (µg/mL), pseudovirus neutralization [20] [µg/mL] | IC50 (µg/mL), pseudovirus neutralization [21] [µg/mL] | further results
1 | 1496_C09 (PG9) (TCN-109) (antibody) | 0.012 | 0.071 | 11.5 | 0.019 | 0.227 | 1.06 | 0.69 | 5.36 | 0.027 | 0.027 | 7.25 | 0.2 | 1.86 | 0.34 | 0.148 | 8.78 | 1.8 | 0.06 | 0.518 | 0.033 | Neutralizing Antibody Assay: IC50; Virus/Ab Incubation 1 hour [4]: 0.334 µg/mL; Neutralizing Antibody Assay: IC50; Virus/Ab Incubation 18 hour [4]: 0.0942 µg/mL; IC50 (µg/mL), pseudovirus neutralization [22]: 1.25 µg/mL; IC50 (ug/ml), pseudovirus neutralization, TZM-bl assay [23]: 0.1 µg/mL; IC50 (µg/mL), pseudovirus neutralization [24]: 0.175 µg/mL; IC50 (µg/mL), pseudovirus neutralization [25]: 0.021 µg/mL; IC50 (µg/mL), pseudovirus neutralization [26]: 40.6 µg/mL
2 | PGV04 (antibody) | 0.184 | 0.025 | 3.56 | 0.027 | > 50 | 7.21 | 0.54 | 2.76 | 0.139 | 0.038 | > 50 | > 50 | 22.4 | 0.202 | > 50 | 0.166 | > 50 | 43.2 | 0.268 | > 50 | IC50 (µg/mL), pseudovirus neutralization [22]: 0.084 µg/mL; IC50 (µg/mL), pseudovirus neutralization [24]: 0.58 µg/mL; IC50 (µg/mL), pseudovirus neutralization [25]: 0.088 µg/mL; IC50 (µg/mL), pseudovirus neutralization [26]: 0.461 µg/mL
